Experimental data reported in US20190367618A1 (SHANGHAI JUNSHI BIOSCIENCES, published 2019).

What was measured:
[1] = biological target: T1, hPD-L1-his (human, UniProt Q9NZQ7 19-238, limits assumed); assay: ELISA, hPD-L1-his coated, anti-human IgG (Fc-specific)-peroxidase detection
T1 construct: also called human PD-L1; not shown: his tag

[2] = biological target: T2, human PD-L1 extracellular domain protein (human, UniProt Q9NZQ7 19-238, biotin (biotin-NHS, molar ratio 1:10) where used as biotin-labeled human PD-L1 (Examples 2, 3, 5, 12, 17)); assay: ForteBio (BLI)
T2 construct: extracellular domain; About 75 kDa on SDS-PAGE; also called human PD-L1 recombinant protein; biotin-labeled human PD-L1

[3] = biological target: T3, PD-L1 on 293F cells (UniProt Q9NZQ7 19-290, limits assumed); assay: flow cytometry on 293F cells expressing PD-L1
T3 construct: whole, on cells
Method: Antibody (humanized antibodies 30, 38) dilutions at different concentrations was added in a volume of 50 μl, mixed and incubated at room temperature for 30 min. The cells were washed twice with FACS buffer, contacted with 100 μl of goat anti-human IgG-PE antibody, and incubated for 30 min in the dark. FACS was performed after washing twice with FACS buffer.

[4] = biological target: T2, human PD-L1 extracellular domain protein; assay: flow cytometry, inhibition of biotin-PD-L1 (1 µg/ml) binding to PD-1 on 293F cells
[5] = biological target: PD-L1 on CHO cells (human, UniProt Q9NZQ7 19-290); assay: cell-based or functional assay
[6] = biological target: T4, human PD-L1 (ELISA coat, construct not stated) (human, UniProt Q9NZQ7 19-238, limits assumed); assay: ELISA, PD-L1 coated
T4 construct: also called human PD-L1 protein
Method: A 96-well microtiter plate was plated, coated with PD-L1, and incubated at 37° C. for 60 minutes. The solution in the wells was then discarded, and the wells were washed 3 times with washing buffer, and blocked with PBS containing 2% BSA for 60 minutes. After washed 3 times with washing buffer, each well was added with 100 μl of biotin-labeled IgG4 antibody, incubated at 37° C. for 30 minutes, washed 3 times with washing buffer, then added with humanized antibodies of different dilutions, and incubated at 37° C. for 1 hour. After washed 3 times with washing buffer, the cells were incubated with HPR-labeled mouse anti-human IgG (H+L) (diluted 1:10000 with washing buffer) at room temperature for 1 hour, washed 3 times with washing buffer, and then added with 100 μl of TMB substrate for development. After reacting for 30 minutes at room temperature, the reaction was terminated with 100 μl of 2 M hydrochloric acid solution and the absorbance was read at 450 nm.

T2 sequence (Q9NZQ7 19-238): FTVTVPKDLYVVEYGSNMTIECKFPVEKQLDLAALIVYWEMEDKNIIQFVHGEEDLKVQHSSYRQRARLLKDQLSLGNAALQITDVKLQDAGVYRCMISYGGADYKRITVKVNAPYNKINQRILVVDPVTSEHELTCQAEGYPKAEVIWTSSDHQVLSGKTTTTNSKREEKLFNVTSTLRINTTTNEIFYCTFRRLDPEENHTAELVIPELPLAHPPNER
T3 sequence (Q9NZQ7 19-290 limits assumed): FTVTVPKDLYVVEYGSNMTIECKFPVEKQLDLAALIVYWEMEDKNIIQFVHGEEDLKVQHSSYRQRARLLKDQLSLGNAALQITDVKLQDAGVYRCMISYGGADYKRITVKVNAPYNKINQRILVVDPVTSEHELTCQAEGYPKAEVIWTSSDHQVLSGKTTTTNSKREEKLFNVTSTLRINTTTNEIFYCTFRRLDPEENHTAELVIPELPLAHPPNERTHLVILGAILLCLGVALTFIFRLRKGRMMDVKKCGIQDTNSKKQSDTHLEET
Chain of PD-L1 on CHO cells (Q9NZQ7 19-290): as the sequence (Q9NZQ7 19-290 limits assumed) above
T1 sequence (Q9NZQ7 19-238 limits assumed): as the sequence (Q9NZQ7 19-238) above
T4 sequence (Q9NZQ7 19-238 limits assumed): as the sequence (Q9NZQ7 19-238) above

Molecule | EC50 [1] [µg/mL] | Kd [2] [nM] | EC50 [3] [µg/mL] | IC50 [4] [µg/mL] | EC50, Jurkat fluorescein (PD-1/NFAT-luciferase reporter) analysis [5] [µg/mL] | EC50 [6] [µg/mL]
durvaluma (antibody) | 0.0216 | – | – | – | – | –
clone 21 (murine antibody 21) (antibody, V domains shown, Murine hybridoma antibody) VH: EGQLQESGPSLVKPSQTLSLTCSVTGDSITRGYWNWIRKFPGNKFEYMGYISYTGSTYSNLSLKSRISITRDTSKNHYYLRLNSVTTEDTATYYCATSTGWLDPVDYWGQGTLVTVSA VL: DIVMTQSRKFMSTSVGDRASVTCKASQNVDTSVAWFQQKPGQSPKALIYSASFRYSGVPDRFTGSGSGTDFTLTISNVQSEDLAEYFCQQYYGYPFTFGSGTKLEIK | – | 0.9 | – | – | – | –
clone 16 (murine antibody 16) (antibody, V domains shown, Murine hybridoma antibody) VH: EVQLQQSGPELVKPGASVKMSCKASGYTFTNYVIHWVKQTPGQGLEWIGYINPNIDGGSYNEKFNGKAKMTSDKSSSTVHMELRSLTYEDFAVYYCAKPRGSWGQGTLVTVSA VL: DIVLTQSPASLAVSLGQRATISCRASESVEFYGTSLMQWYQQKPGQPPKLLIYAASNVDSGVPARFSGSGSGTDFSLNIHPVEEDDIAMYFCQQGRHVPYTFGGGTKLEIK | – | 0.5 | – | – | – | –

More lines, now with the values ahead:

EC50 [1] [µg/mL] | Kd [2] [nM] | EC50 [3] [µg/mL] | IC50 [4] [µg/mL] | EC50, Jurkat fluorescein (PD-1/NFAT-luciferase reporter) analysis [5] [µg/mL] | EC50 [6] [µg/mL] | Molecule
– | – | 0.348 | 0.889 | 0.082 | 0.000837 | humanized antibody 38 (antibody, V domains shown) VH: QGQLQESGPSLVKPSQTLSLTCTVSGDSITRGYWNWIRKPPGKGLEYIGYISYTGSTYSNLSLKSRVTISRDTSKNQYYLKLSSVTAADTAVYYCATSTGWLDPVDYWGQGTLVTVSS VL: DIQMTQSPSSLSASVGDRVTITCRASQNVDTSVAWFQQKPGKAPKALIYSASFRYSGVPSRFSGSGSGTDFTLTISSLQPEDFATYFCQQYYGYPFTFGQGTKLEIK
0.0111 | – | 0.287 | 0.647 | 0.0782 | 0.000558 | humanized antibody 30 (antibody, V domains shown) VH: QGQLQESGPSLVKPSQTLSLTCTVSGDSITRGYWNWIRKHPGKGLEYIGYISYTGSTYSNLSLKSRVTISRDTSKNQYYLKLSSVTAADTAVYYCATSTGWLDPVDYWGQGTLVTVSS VL: DIVMTQSPDSLAVSLGERATINCKASQNVDTSVAWFQQKPGQPPKALIYSASFRYSGVPDRFSGSGSGTDFTLTISSLQAEDVAVYFCQQYYGYPFTFGQGTKLEIK
